Experimental data taken from the NTF2 design screens of Basanta et al. (2020).

Assay: protease stability score; higher = more stable; yeast display proteolysis, trypsin and chymotrypsin;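 also: relative to predicted unfolded state with 0 unfolded-like and 1 meaning tenfold more protease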
With “DETTEKNERYIERLHHYLETGNEEELLHLFDPNTKFVQGDKEIIGREEVRHWEEEKRRKMGIKHWDFEFRRVRIIGEKLIIHGKEIINFENHRLERTVEIHLLLIDGRVKEVVYHVN” the protease stability score was 1.2. “DRHEELNKEIAEELVHWHRTGDWEEIQRNMDPNVRMEINGVENVGRETMAEILHEWLSRIKGLRVEIKHVEIIGDKVHIHGRININGRERNTHIDLHVVNGQMHELIIKVE” showed a protease stability score of 0.279. With “EEEEEFLRIMIELFLRTVKTGDEDAFNKLADPNVKSNINGVTLHGMERHHEWLRIELEKAGVERVDTRLDDKNIIDGRVIVHGTMFYNGRTITVHNIWHKINGRWVLETIEIR” the protease stability score was 1.6. In the case of “DELEKHLIHLAEIFIHNKLTGDEEELQRFMDPSVRTIVGEFHYHGRELVTEWLRREWEEMRIHEIHITHVRFQGDKVIIEGRLDIEVNGRRVDTHALIILVVVDGVMKSVKFEII”, the protease stability score is reported as 1.23. With “SEEDKWIKDMTHLFLHWFLTGDEEIFNHFADPNVRVQYGDKWRVGRERVSEFNEFVLRELRFKEIRLKNLSTQGEKATSIVRVDVQFDGKEIDIEIRIHIVVVDGVLKQVEIRET” the protease stability score was 0.795. In the case of “SEDQEVAEKDLEIYSRAITTGNEHELKHLLDPNYKLIVNGQEYHGWETLRHYWKHLRVESVEFEIRSFDSQGDKLHIDGIIILHGEVDGRHTELFEDVHIRAHKINGRWHNKEVNIR”, the protease stability score is reported as 0.897. For “DEEKHLALFLYRILVKWWLTGNEEDESHLADPHTRFEVNGVELIGRELSSHMIERELREIRVIIEIEEFRTVGDKVDIRLTLKYEYGDKEDSRESHLELIIIDGKTTHVEVRER”, the protease stability score was 1.6. Sequence “DHEDERSRELTQILWKAWLTGDEELFHRLHDPDVRTEFDGREYHGWERFSELLNQFKNVRIRLRDYRIQGEKSKLDTQINIGDKRTRFHIEIYIIDGRLKNMRFEIE” has a protease stability score of 0.868. “SELDEYMHRMMKWILEEEITGDEERFLHLADPHVRSRIDVGEWKWDHHGRDAIRVYREQVDHITHVKVSNFHVQGDKAISDVHEEVRVGDKHVIRRIEIIVIVIDGKVHSIELEIK” showed a protease stability score of 0.357. “REEEEESQKATEHQLHSLRTGDWRSIERLLDPNTRMEINGVDSVGREYVLELFRRWLEEAGINHIELKSYEVFNGKLEIHSEVHYDGRTIKVINIVIKVNGRWLLHHVHIEDL” showed a protease stability score of 0.561. “DESERMVLELARLFLEDLLTGNEDLMSHLADPHAKNDINGVDLHGMEVISKHLSELRLRVLDITEERVQGDKVRIKVEVVIQYGDKWRETEVDLELYIVNGRLKSQIWTIR” showed a protease stability score of 1.08. “SEEEENAHKAMRFLEEVMKTGDEKSWLDLFDPDARIIIGDKHHIGWEHIHELMRRIDHIHDFHVHDVRSQGDKVFVDIKIDGIINGRRYRTRIEVIVRKFDGKWHIDHIQHN” showed a protease stability score of 1.2. In the case of “DNEEKDNKTATKLLLDWLRTGDEESMSRNADPNTRLEIGDKEFHGREEVLRHLHELKRHFGIERFEVDIERVEIYGDKVVIHSRMNVNGQRREVIFIDRKIDGRWIFKSIELR”, the protease stability score is reported as 1.13. Sequence “REDVEDFKRFIELEVHAHETGDEDLLRKLLDPHVRVIIDGVTIVGWKALRDLLERFDHYTIHHMHIEDLRIQGDKIIVDLRLDLIFNYNGRHLRVDSHARIIMIKYNGRWYNHSIEFE” has a protease stability score of 2.12. Sequence “SEDHENIERFLTHFVTAIETGNFNELEKLLDPNAQIEINGQRIHGREWFVDHIRRIKNIRFEIHVEDSEFYNGKAHIRTRLILKYGDKEREHDVVLVIRKINGRWVIEWIIIE” has a protease stability score of 1.54. With “DEDTKLSKDAIRTFLESMVTGDEHILHRLADPNVKYSQGDKEYHGWEYAREFWSRVKNIRFHLKHYEVYGNKVHIEGELHVDGRHFEVHIVIIKFDGRWKIESHEIK” the protease stability score was 1.19. “HEESEDATRFLHQVIHALYTGDEKRFDELLDPRMRLHIGDKQHVGRENVSEFLLHLRIRHVHVHDFRVFDGRLHVDQTLDGEYDGRRREIHFELQITKINGRWFLNHFWIR” showed a protease stability score of 1.35. For “SEEEKEMHHIARLFFELWLTGDEETHQRLLDPDAKHSFNGVILHGRDEMIRYWRQFLEEIRLRSIEIRRITSVGDKVHVDSHVDGEVNGRRIVTREYIELEVVDGRWKRVKLHIK”, the protease stability score was 1.38. For “DKEEHDVHNMWQHLVEVLLTGNEEAIHENLDPDAKLEVGDKRYHGRELVSEVWSRLGINVIQLDDMRPIGNKVHVETTTHFNGKTLEMRIDAHKVNGRWLSESLIIR”, the protease stability score was 0.951. “DEKEHELTRMIRMIETLLRTGDFEELEKLMDPDVRLDIDGKHLVGRHDLREFFLELGVKHTDTKEIHVIGDKAFLHTEIHVDGRTTKVIIIMHKINGRWIITSTHIRHH” gave a protease stability score of 1.47.
